Measured values from US20170190782A1 (ABGENOMICS COOPERATIEF U A, published 2017).

T1: human P-Selectin Glycoprotein Ligand-1 (PSGL-1) (human, UniProt Q14242 42-412)
T1 construct: whole, on cells; also called hCD162; human CD162
T1 sequence (looked up): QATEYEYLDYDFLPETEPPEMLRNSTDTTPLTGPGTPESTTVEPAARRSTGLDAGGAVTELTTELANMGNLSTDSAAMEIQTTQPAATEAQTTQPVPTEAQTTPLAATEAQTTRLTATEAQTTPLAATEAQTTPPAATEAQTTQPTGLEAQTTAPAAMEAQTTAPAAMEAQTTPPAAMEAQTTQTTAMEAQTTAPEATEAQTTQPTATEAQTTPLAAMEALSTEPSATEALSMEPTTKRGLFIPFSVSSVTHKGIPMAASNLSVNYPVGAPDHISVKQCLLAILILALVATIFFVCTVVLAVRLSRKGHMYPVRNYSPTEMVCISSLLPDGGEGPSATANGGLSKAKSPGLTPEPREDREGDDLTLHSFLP

T2: E. coli expressed hCD162 fragment 42-319 fused to human immunoglobulin gamma 1 heavy chain constant region (human, UniProt Q14242 42-319)
T2 construct: Expressed in E. coli from pET-32a; junction residues are not spelled out; not shown: human immunoglobulin gamma 1 heavy chain constant region
T2 sequence (looked up): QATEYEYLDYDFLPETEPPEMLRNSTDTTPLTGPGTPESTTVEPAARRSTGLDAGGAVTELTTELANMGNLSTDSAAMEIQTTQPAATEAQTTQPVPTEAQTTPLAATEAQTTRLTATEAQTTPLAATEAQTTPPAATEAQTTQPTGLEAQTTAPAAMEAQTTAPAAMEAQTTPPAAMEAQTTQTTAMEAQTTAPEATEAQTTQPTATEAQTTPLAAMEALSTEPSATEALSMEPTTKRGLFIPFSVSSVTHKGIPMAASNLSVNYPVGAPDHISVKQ

T3: E. coli expressed hCD162 fragment 42-80 fused to human immunoglobulin gamma 1 heavy chain constant region (human, UniProt Q14242 42-80)
T3 construct: range 42-80; Expressed in E. coli from pET-32a; junction residues are not spelled out; not shown: human immunoglobulin gamma 1 heavy chain constant region
T3 chain (looked up): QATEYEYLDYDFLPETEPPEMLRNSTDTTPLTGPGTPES

T4: E. coli expressed hCD162 fragment 42-119 fused to human immunoglobulin gamma 1 heavy chain constant region (human, UniProt Q14242 42-119)
T4 construct: range 42-119; Expressed in E. coli BL21(DE3) from pET-32a; NdeI/BglII cloning adds a start Met and junction residues that are not spelled out; also called fusion protein covering residues 42-119; not shown: human immunoglobulin gamma 1 heavy chain constant region
T4 sequence (looked up): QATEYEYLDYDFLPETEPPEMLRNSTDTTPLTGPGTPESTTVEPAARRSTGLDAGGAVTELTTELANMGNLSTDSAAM

B1: mouse 9F9 antibody (antibody, V domains shown)
VL: DVLMTQTPLSLPVSLGDQASISCRSSQSIVNSNGNTYLEWYLQKPGQSPKLLIYKVSNRFSGVPDRFSGSGSGTDFTLKISRVEAEDLGVYYCFQGSHVPWTFGGGTKLEIK
VH: EVQLVETGGGLVQPKGSLKLSCAASGFTFNTNAMNWVRQAPGKGLEWVARIRSKSNNYATYYADSVKDRFTISRDDTQSMIYLQMNNLKTEDTGMYYCVRGGSYWYFDVWGAGTTVTVSS
notes: Mouse IgG1 from hybridoma m128-9F9; also called m128-9F9
B2: mouse 15A7 antibody (antibody, V domains shown)
VL: DILMTQTPLSLPVSLGDQASISCRSSQSIVHNDGNTYFEWYLQKPGQSPKLLIYKVSNRFSGVPDRFSGSGSGTHFTLNISRVEAEDLGIYYCFQGSYVPLTFGAGTKLELK
VH: DVQLVESGGGLVQPGGSRKLSCAASGFTFSSFGMHWVRQAPEKGLEWVAYINGGSSTIFYANAVKGRFTISRDNPKNTLFLQMTILRSEDTAIYYCGRYASYGGGAMDYWGQGTSVTVSS
notes: Mouse IgG1 from hybridoma m152-15A7; also called m15A7; m152-15A7
B3: mouse 43B6 antibody (antibody, V domains shown)
VL: ENVLTQSPAIMSASPGEKVTMTCRASSTVNSTYLHWFQQKSGASPKLWIYGSSNLASGVPARFSGSGSGTSYSLTISSVEAEDAATYYCQQYSGYPLTFGAGTTLELK
VH: EVQLQQSGPDLVKPGALVKISCKASGYSFTAYYIHWVKQSHGKSLEWIGRVNPNTGGTSYNPKFKGKAILNVDKSSSTAYMELRSLTSEDSAVYYCARSGSPYYRYDDWGQGTTLTVSS
notes: Mouse IgG1 from hybridoma m166-43B6; also called m166-43B6; M166-43136
B4: chimeric 15A7 antibody (antibody, V domains shown)
VH: B2 VH
VL: B2 VL
notes: Mouse 15A7 VL on the human light chain constant region (pVk) and mouse 15A7 VH on the human IgG1, IgG2 or IgG4 heavy chain constant region (pVg1, pVg2, pVg4)
B5: humanized 15A7 antibody (antibody, V domains shown)
VH: EVQLVESGGGLVQPGGSLRLSCAASGFTFSSFGMHWVRQAPGKGLEWVAYINGGSSTIFYANAVKGRFTISRDNAKNTLYLQMNSLRAEDTAVYYCARYASYGGGAMDYWGQGTLVTVSS
VL: DIQMTQSPSSLSASVGDRVTITCRSSQSIVHNDGNTYFEWYQQKPGKAPKLLIYKVSNRFSGVPSRFSGSGSGTHFTLTISSLQPEDFATYYCFQGSYVPLTFGQGTKVEIK
notes: V regions were inserted into the pVk and pVg4 vectors (human kappa light chain constant region, human IgG4 heavy chain constant region); also called Hu15A7

How the values were obtained:
[1] = biological target: human P-Selectin Glycoprotein Ligand-1 (PSGL-1) (human) (UniProt Q14242); experiment: FACS, inhibition of recombinant human P-selectin binding to activated T cells; competitor P-selectin
[2] = biological target: T1, human P-Selectin Glycoprotein Ligand-1 …; experiment: as above
Description: (§1) Human PBMC were activated with 1% PHA for 2 days and maintained in IL-2-containing medium for 3 days. The cells were incubated with titrated 9F9, 15A7, 43B6, KPL-1 (an PSGL-1 antagonist), or a control antibody (9E10) for 30 minutes, followed by the addition of recombinant human P-selectin (1.25 μg/ml). Binding of P-selectin to activated T cells was measured by anti-P-selectin-FITC analyzed on FACS. Consistent with previous reports, KPL-1 almost completely abolished P-selectin's binding to activate T cells at a low concentration (0.31 μg/ml). 43B6 blocked binding of P-selectin to activated T cells as effectively as KPL-1 did, whereas a higher concentration of 9F9 was required to achieve the same effect. Indeed, 0.08 μg/ml KPL or 43B6 was needed to abolish 50% of the binding. In contrast, 5 μg/ml 9F9 was required.

[3] = biological target: T2, E. coli expressed hCD162 fragment …; experiment: sandwich ELISA, fusion protein captured by goat anti-human IgG, antibody at 2 µg/ml
Description: (§2) A sandwich ELISA was conducted to study the interaction between the hCD162 fragments and each of 15A7, 9F9, and 43B6. 96-well microtiter plates were coated with goat anti-human IgG (Southern Biotechnology, Cat. No. 2040-01) antibody (2 μg/ml, 50 μl/well) overnight at 4° C. Plates were blocked by incubation with 0.25% of BSA in PBS (150 μl/well) for 1 hour at 37° C. The blocked plates were then incubated with fusion proteins containing various fragments of human CD162 (2 μg/ml) for 2 hours at room temperature. After washing 4 times with PBS containing 0.05% of Tween 20 (PBST), the plates were incubated with testing antibodies (2 μg/ml) for 1.5 hours at room temperature.
(§3) After incubation, the plates were washed 4 times with PBST. 50 μl of 1 to 3000 diluted goat anti-mouse IgG conjugated with alkaline phosphatase (Southern Biotechnology, Cat. No. 1031-04) was then added to each well and the plates were incubated for 1 hour at 37° C. Enzyme reaction was carried out by adding 50 μl of an alkaline phosphatase substrate solution (1 alkaline phosphatase substrate tablet dissolved in 5 ml of substrate buffer containing 0.012 M of Na₂CO₃, 0.16 M of NaHCO₃ and 1 mM of MgCl₂ at pH 8.6), and absorbance at 405 nm was determined.

[4] = biological target: T3, E. coli expressed hCD162 fragment 42-80 …; experiment: as above
Description: as §2, §3

[5] = biological target: T4, E. coli expressed hCD162 fragment …; experiment: as above
Description: as §2, §3

[6] = biological target: T1, human P-Selectin Glycoprotein Ligand-1 …; experiment: cell-based or functional assay
[7] = biological target: T3, E. coli expressed hCD162 fragment 42-80 …; experiment: sandwich ELISA, fusion protein captured by goat anti-human IgG
Description: as §2, §3

[8] = biological target: T4, E. coli expressed hCD162 fragment …; experiment: as above
Description: as §2, §3

[9] = biological target: T1, human P-Selectin Glycoprotein Ligand-1 …; experiment: FACS, inhibition of recombinant human P-selectin binding to activated T cells; competitor P-selectin; the antibody binds PSGL-1 but does not block
Description: as §1

[10] = biological target: T1, human P-Selectin Glycoprotein Ligand-1 …; experiment: FACS competition against Biotin-labeled mouse 15A7 on CD162-expressing Sp2/0 cells
Description: (§4) Sp2/0 transfectants stably expressing human CD162 were used as source of human CD162 antigen. Biotin-labeled mouse 15A7 was used as tracer. Increasing amounts of competitor antibodies (mouse, chimeric, or humanized 15A7) were mixed with 35 ng of Biotin-labeled mouse 15A7 and incubated with 1×10⁵ CD162-expressing Sp2/0 cells for 1.5 hours at 4° C. with constant shaking. After washing, secondary antibody, Streptavidin-PE (Becton Dickinson Immunocytometry System Inc. Cat. No. 349023) was added to the mixture. After incubating for 45 minutes at 4° C., the cells were washed again, resuspended in 300 μl of PBS-1% of FBS, and subjected to FACS analysis.

[11] = biological target: T1, human P-Selectin Glycoprotein Ligand-1 …; experiment: derived from FACS competition against Biotin-labeled mouse 15A7 on CD162-expressing Sp2/0 cells
Description: as §4

| Molecule | IC50 [2] [mg/L] | binding result [3] | binding result [4] | binding result [5] | Percentage of apoptotic T cells (annexin V positive, CD3 gated), Day 0 non-activated human T cells [6] [%] | Percentage of apoptotic T cells (annexin V positive, CD3 gated), Day 7 in vitro activated human T cells [6] [%] | IC50 [10] [mg/L] | Ka [11] [M⁻¹] | further results |
| --- | --- | --- | --- | --- | --- | --- | --- | --- | --- |
| KPL-1 anti-hCD162 antibody (PharMingen) | – | – | – | – | – | – | – | – | IC50 [1]: 0.08 mg/L; concentration that almost completely abolished P-selectin's binding [1]: 0.31 µg/mL |
| B1 | 5 | binds | binds | binds | 5.82 | 28.7 | – | – | – |
| B2 | – | binds | – | – | 5.23 | 51.7 | 3.72 | 4.03e+07 | binding result [7]: no binding (tested: 2 µg/ml); binding result [8]: no binding (tested: 2 µg/ml); IC50 [9]: > 20 mg/L |
| B3 | 0.08 | binds | binds | binds | 6.57 | 49.4 | – | – | – |
| B4 | – | – | – | – | – | – | ~5.71 | 2.62e+07 | – |
| B5 | – | – | – | – | – | – | ~4.51 | 3.33e+07 | – |
